The text below walks through data of the domain aggregation screens of Martell et al. (2025).

This data set is described as follows: soluble fraction after stress (log2 fold change); higher = more stays soluble; pooled small domains, quantitative proteomics. To be noted: stress: 50 degC. In short, it runs like this:
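The stress applied to every library was 50°C. These custom libraries of small protein domains were pooled and measured at high throughput with quantitative proteomics as the read-out. Aggregation propensity is expressed as the base-two logarithm of the fold change in how much of each protein remains soluble. The higher the value, the more of that protein stays in solution.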

For “HMQSAMALTKDLIEQQGKYYHRGQPFTGVGFAKNKKGKFVTEEPFKNGLLHGKRVNYDHNGHVLAREK”, the “soluble fraction (log2)” value was found to be 0.264.
The same measure for “HMTGESIPFSKFLSEVDSGRVINVEIQGNNISGLLSDGNKFKTYSPNYPNLVEILSEKEVSIVATPLE”: 0.0525; for “HMSVLSEQIKEQLMEDIFHKKYKAGDRIVESALARELGVSQASVREALRSLIAMGFLENEPFKGITVR”: 0.0703.
As to “HMDTDWDVSGVTPDQYRLLFSVLGGLAGVKDVGLNPDGLRIIHTPEALPSIEKAFQANGLKLKRNVD”, the “soluble fraction (log2)” value came to 0.035.
Under “HMANSREIPKLAGIEQEEAVKQLLDLDLKPVIEEITDDDTDAGDVVRTDPAAGEHVAVDTEITVFISIG” stands -0.421.
“HMALDLNEDEKLLVELIEKAGGTAGLGELKEASGLSGKKWDKTTKNLSKEGLIKVEKNESGLWVHLT”: the “soluble fraction (log2)” value was 0.153.
Under “HMKPLIIPLELMQRLSSDKQLEAGFNRFSKSKQHEFAAYIAAAKRVETKVKRLEKIIPLILSGEGLNDR” stands -1.36; under “HMAPKVTLNETETAIFEKMQQEKQLLLSELRTHFDISNKLWDTSIKTLTKNQLLTVSKEADLLWIKL”, -0.658.
Under “HMGNFNDMLKYLRVREKMSQAELADKLGVSKSTVGMYELGKREPDFETLEAIADLFNVDMNFLLGK” stands -0.35; under “HMAMDSGELEAIVDRLISEHPDDWAALTAGDDRERKKKSGFFVGEVMKATRGQADGRAVIELLASRSA”, 0.00605; under “HMKDESYALGTRLLSHALGKTKLEDLAQEKIDEVVQQSGNKTLEQLLTNIGLGNALSIGIARQLT”, 0.383.
The same measure for “HMRPTHYSGPSVIAMINNRVWFSDGSRLAPGEHHDDLEVVGLSPPWSAKVRWQGVEFDVGLFE”: -1.45; for “HMNDMPELLSIKEASQWATEYLNKNVTTSNIAYLIQYGRIRKIGNNGSTQVLKDDLVKYYKDQK”: -0.139; for “HMSFSPYLVRVSITDLNIRKGPGTNYAKTGKFTGKGVFTIVEMQTGKGSDTGWGRLKSGAGWISLDYTEKI”: -3.
Regarding “HMQTTKTGTITASSLYVRSGASTSHKVLGTVSKGKTVQIKDTQDGWHKISYNGDHGWVSGKYVSTT”, the “soluble fraction (log2)” value is at least 0.62.
The same measure for “HMGSKKAIPYVSGMSETEAQNELEEAGFKVTSSFQYDDSVESGKVISTTPEAGTKAEKGSTVTMLVSQGSN”: -0.114; for “HMRADYVGGLDPAGDNFLALRTGPGSGYAMILPMGPGTFVTVLRRNGKWLLVELEDGTRGWAYGSYILG”: -2.84; for “HMPDLQDTLYRLVPEDGSAIGNQSLREKFLSTAKDASDADFEAARDGLVEQGKLTKGKGRGGSVRRAEP”: 0.389.
For “HMNVNEIREMYPEGTQIVLTEMRGENQMPYGLKGTVKFVDDAGQIHMKWENGSSLALNINEDTFEKVE”, the “soluble fraction (log2)” value was 0.147.
Under “HMTLRDRDQALEELWGQLADVPMDSETERLLEPFMGWGVGVSRDEIWHWFDRRHSKGIGHLLYS” stands -1.55; under “HMEIHQVEFGGKVISFVLERKPVKNVNLHIKPDMTVMVSANEKVPLDFILGFVKQKAAWILKNIQFFEDV”, -1.25.
As for “HMNHHTEQQLKALSNKVKDHRMRMRLLAVAHFKAGKNKADVARTLNVSRRMVNEWVANYFKGGVSALES”, the “soluble fraction (log2)” value is -3.6.
The same measure for “HMPKETFLNLDEEKRQAIINVLLKNFSEQHISQVKVSAIVSGIGMSRGAFYKYFEDLEDAYRFTISYFSA”: -0.0102; for “HMISEGDIIKGTVIDVNEEEVILDLKYYAQGVIKAENLSNDPDFLAAGKISVGDEIEATVIKMDDGEGNIE”: 0.0355; for “HMNLSAREWTSADGSRTFQGELTGFQDGKVKVRRSDGKSLVFAIELLSESDQQFIKTNQLVIAKKDED”: 0.161.
The same measure for “HMNTFKNIFIQEGDLFNLKKNDNQIIFAKEGILINENKKIFRLLNGKIISTNNNRLIGFEFDKIDYNLSN”: 0.489; for “HMSDFEASDPALLREGMRVQHLNFGKGTVITIEGAGANKKASVAFDGVGTKQLMLRFARLKIIYE”: -0.146; for “HMIVDYPSFVGKTKQELEKWAKENNIIIRYRQLSVTASDKVKAQLPATTTYKRIMKGSSIEVELEL”: -0.776.
Consider “HMQSTVSTHQKTLALDTAQSGIPVFPVSSTHKRPLTDHGYKDATADADAVRKIWQQFPSAFV”, for which the “soluble fraction (log2)” value was found to be 0.0922.
As for “HMGMTNRIKELRKAKGYRQEDLAAALGVSRQTIIAVENNKYNPTLELAMKLARHLQTTVEELFQL”, the “soluble fraction (log2)” value is -0.758.
The same measure for “HMPNIHVVFAEEWTDRRLDKVLSEYFDGYSRSFIKKLFDDGLILVNSKAVKPSYKVRAGDMIDISVPDPV”: -0.646.
The same measure for “HMGMVEFEIGERDHSEDVSRKLFEAGLIEDASDFNQYMIEKKMDDHLQTGKYQIPKGATKDEILELIVR”: -0.00544.
The same measure for “HMTRNEFLTALRGRLSALPKEEQDAALKYYEEYFDEAESEEDAARQLGSPDSIAEKILADYA”: -0.17; for “HMQGEKDDLWREVLDNPDAWWDNRERKNAPGGNPRYPDFKHKDSQTPLWIESRDTPQWAIDALL”: 0.383.
Take “HMLLTPLEETRLVIEEIVIPQKLTIDLLPRSSAIRKLQHELITHYQLRGTSVGNEPNRRLRIYP”: the “soluble fraction (log2)” value is -0.244.
On to “HMEFYYSDLVGMIVYDTGGNELGKVQAVLNHGAGDLLEIHGVNLKTSILIPFTKEAVPTVDIAARRIVTDP”, for which the “soluble fraction (log2)” value amounted to 0.0733.
Turning to “HMVSVGDIFAGRIISNENGHLLLQLLDGSKISAQTVTDLKYNIGDVLNLEIIEEKQGLIFVRQT”, the “soluble fraction (log2)” value is -0.516.
As for “HMSEPTVVAINETLTSERLDRYLTTQLPHISRGGIQRLLRKGNILVDGKPAKPTQHPVAGQTVEITWPIPK”, the “soluble fraction (log2)” value is -0.359.
The same measure for “HMPEITPAMIKALLSSLSEELAFASVTKVYAVLHNLFKAALLDDTIDRNPMDKVPRPRKSKDAAL”: -0.38; for “HMDLPGIVTETDRQRADLAARIGAAKVEAVLAGGARSVEADEDFDADTRRELHQFLTRMARRAFLEER”: -0.0484.
Under “HMHSPLLDRYLAEVGWRLRHLSGAQREDILAGLREHIADLESAGVAPEEIVARLGSPESVADAAAGEF” stands -0.334; under “HMLEASVYTAEKSGDRLDAFLAEQAGITRSYAQKLIEGGQVTLGGVVPKKNYKLSAGEQVELILPEN”, 0.0254; under “HMKPQIRRHEKITALVREHGFMSVEQLARELEVTPQTIRRDIGILSAENVLRRYHGGAALGD”, -0.586.
Turning to “HMTLDEFTDLMNLFKTGHIEQKPVILYGYNYWTSLKSWFEFNNMKFPEMYIDGIINTVDEFKILYNKIF”, the “soluble fraction (log2)” value is -0.982.
For “HMKKILITGNSGYIGSHLSKMLENDYEVHGLDIRQPQHPVAKFYEQDINRPINIEEEYDAVIHLAALV”, the “soluble fraction (log2)” value was -0.196.
Under “HMSTMTDAQRHLFANKLSQLPEMGKYSHGTESYQQFAVRIAEMLQTPKKFKELYPYLQKVGFKA” stands 0.00319; under “HMKNEQIFIVRPDAEGTRLDQWLAAQMASSEEAPSRMQIQRWIKAGLVEGQGTLNPARRIEAGESYTVKPG”, 0.0493; under “HMGFALLIAIERTGNTTYFVKLTLIKKGSDSDVLKDSFSVSQGDLVGTATYDSVIANRIREKTAAMWQKAT”, -2.13.
The same measure for “HMPYLVNGFILEVQSDDNNPVGTLKRRYAVAKNKQGVILLEGEKSFSSNDQILINELKFYIQSNDLKA”: -2.43; for “HMTSAHEKAFDLFDGGKLSEKALLIAVGAERSGFELAGDLRLRTLTAFEDGRLSEDAMIKLL”: -0.385.
The same measure for “HMDYKYYIVKEPMVVKNLELPVGTRIVYFNTSLFGDSESSRPLKEKNIYQIFFPDDKPLIWGGVPVSLIER”: -1.97.
Consider “HMSGRSVSYSEFMSRVEAGQVSSVTLDGERVEVTGSDGSRYVTIAPSDATLTDKLVAKGVEVRADP”, for which the “soluble fraction (log2)” value worked out at 0.102.
Regarding “HMGNLPPAVINARIKVSPAGRGVFVGFDKGSTSTEAKYADAIRGYLPNIEFNKDDHESVVTVPFNFR”, the “soluble fraction (log2)” value was -0.032.
In the case of “HMHADIAATVVATMRQLGVLGLPRNYEIFYEALSGTNRELSLAVVSLSNRPTQDDLDRIGRRFFA”, the “soluble fraction (log2)” value was -0.785.
With “HMQEERDISFIKIHLEPGHPWRGRALRELMPLKDLLIVMVVRGEDTIVPNGDTRLEEGDLLVLAAYPFEE”, the “soluble fraction (log2)” value is -0.436.
Under “HMIPRGFSRYYILELLQKKPHTGKEIIDNAIKESGGRWNPSPGLIYPLLGRLLDENLIEETNDGKYK” stands -1.72.
With “HMNIVVSSIDSNSFEIVNKETGEQAVISYDKETKKGFVLINGVKKEFFQDGNKVYYDGYVIAE”, the “soluble fraction (log2)” value stood at 0.227.
As to “HMDGIRLYPGLMIEHKNFGRGQVVSVNRERGTFTAFFGKNGTRTLTIQILKTDTVRPLASQKAGK”, the “soluble fraction (log2)” value was determined as 0.212.
As for “HMDVSPVRLIREARGLSQVEVAKAAGLSRAAYQNIEVGKTVPRASTMVNIARALGVSMDDLLAPV”, the “soluble fraction (log2)” value was -0.251.
With “HMSFGWETLEGKEGVTDTDLHPSGWVKVGDEKIFVVSQGEFLGKGTDIVVVSVDGNRVVVKELI”, the “soluble fraction (log2)” value was -0.694.
Consider “HMNQNAMIGAHIRNLRLAKKLTLKQLSDESGLSVGFLSQLERGMSSIAIDTLARLAHILGADLSSFF”, for which the “soluble fraction (log2)” value was -0.763.
Under “HMRTMRHLSVPRQETQQILSQLKAEFALPQGARVQPDPSDSKRTLIPVKEGAESELLSRYPVVHAEP” stands 0.0847.
In the case of “HMVDPAFLAWQQKPENTWFGTDRRKTALAIAIAEEIRNDPANSNLVGAAFYARVAEETEETLN”, the “soluble fraction (log2)” value was -0.628.
With “HMTYAQQIGARIAFLRRLKGLTLAELAERVNKHKSTISKYESGQIIIDIESLKEVADALGVDVAQIVE”, the “soluble fraction (log2)” value is -0.0214.
The same measure for “HMNAKKSTLQLDLLKQLLEGNKISLKDFSLSNEISIRTAQRYIEDLLEIFEKNIVKEGDFYSFIS”: -2.3; for “HMAVSGRGSIIGGVATVLDDFADSGKVWLEGEAWQARSSVPLKQDQEVVVRAMDGLVLVVEPVA”: -0.198; for “HMSDPSRKADFIAALSSLGGSAGNGKLREQLGWDEPTYDAVKQTLLDEGAITNGRGRGGSVALAG”: at least 0.62.
Under “HMIVNTTRAPYLLGETEQDAMRLARQAGLVPEIVRQSSAEPAGTVILQSHDFDYRMRRGSVILITVSTGPL” stands -2.15; under “HMGGVEWLTHPIGPRDSLQVLARAGLEARPTSDGDYEIYGQERWPQRDQARLMGWLRRFGQWVWQALYDK”, -0.378.
